B1: HDV Ribozyme (parent)
chain: GGCCGGCAUGGUCCCAGCCUCCUCGCUGGCGCCGGCUGGGCAACAUUCCGAGGGGACCGUCCCCUCGGUAAUGGCGAAUGGGACCCA

Data on 167 variants can be found in the RNAGym collection of RNA variant scans (doi:10.7554/elife.80360).

Variants of B1 are the subject of the series. As to the kind of experiment: self-cleavage, relative activity (ratio to wild type); higher = more cleavage; co-transcriptional.
Take G76C A87C: the self-cleavage worked out at 1.08.
For G74C A78G, the self-cleavage is 0.113.
The same measure for G74C U79A: 0.189.
The same measure for G74C U79C: 0.181; for G74C U79G: 0.302.
Turning to G73C C84A, the self-cleavage was 0.277.
The result for G73C C84U reads 0.321.
The same measure for G73C C84G: 0.086.
For the variant A78G G80A, the self-cleavage was 0.242.
The same measure for G73U A77G: 0.306; for G73U A77C: 0.0898; for A78G G81U: 0.185.
The result for G73C C86A reads 0.641; that for C75G U79A, 0.123; that for C75G U79G, 0.0791.
The result for C75U C86A reads 0.111; that for A77U C84G, 0.403; that for A77U C84A, 0.291.
Consider G76A A83G, for which the self-cleavage was 0.992.
Consider G76A A83C, for which the self-cleavage turned out to be 0.539.
The same measure for G74U G81A: 0.211; for G76U A77C: 0.295.
Take A78C C84A: the self-cleavage was determined as 0.156.
The same measure for A78C C84G: 0.11.
The result for A78C C84U reads 0.196; that for C75A C85A, 0.175; that for U72G C85U, 0.644.
The same measure for G76U U79G: 0.91; for G76U U79C: 0.782.
For C75A G80C, the self-cleavage was found to be 0.18.
C75A G80U: the self-cleavage came out at 0.118.
For the variant C75A G80A, the self-cleavage came to 0.12.
For G74C C84A, the self-cleavage is 0.177.
With A78U A83U, the self-cleavage came to 0.269.
The same measure for A78U A83G: 0.285; for A78C C85A: 0.277; for A78C C85U: 0.0923.
As for G74U C84A, the self-cleavage came to 0.475.
With G76C G82U, the self-cleavage came out at 0.326.
The same measure for G73A G80U: 0.153; for G73A G80A: 0.0652; for G73A G80C: 0.165.
Regarding U72G C75A, the self-cleavage is 0.0665.
The result for U72G C75U reads 0.0415; that for U72G C75G, 0.262.
The result for G74A G76C reads 0.464.
The same measure for G74U C85A: 0.415.
As for G73A C85U, the self-cleavage came to 0.73.
Turning to G73A C85A, the self-cleavage amounted to 0.882.
The result for C75U A83C reads 0.128; that for C75U A83U, 0.199.
G74C G81C: the self-cleavage stood at 0.196.
On to G74C G81A, for which the self-cleavage was 0.0875.
The same measure for A78C A83C: 0.151.
For the variant G76A G80A, the self-cleavage amounted to 0.585.
The result for G76A G80U reads 0.441; that for G76A G80C, 0.0719.
As to G74C G80C, the self-cleavage came out at 0.183.
The same measure for A77C G80U: 0.219.
The result for G76U C85U reads 1.24; that for G76U C85A, 1.05.
On to G76U C85G, for which the self-cleavage was 1.16.
Consider C75G A78U, for which the self-cleavage was found to be 0.0462.
The result for C75G A78C reads 0.151; that for C75G A78G, 0.222; that for U72G G73U, 0.554.
U72G G73C: the self-cleavage stood at 0.639.
Regarding C75A C84G, the self-cleavage was 0.0707.
Turning to G73A A83U, the self-cleavage turned out to be 0.323.
The same measure for C75A G81A: 0.151; for G73U C86U: 0.448.
The same measure for G73U C86A: 0.543.
On to G76C G81A, for which the self-cleavage stood at 0.499.
The same measure for A78C G81A: 0.17.
With A78U A87G, the self-cleavage was determined as 0.226.
The same measure for A78U A87C: 0.31; for G73U: 0.382; for G73A: 0.691.
Take G73C: the self-cleavage was found to be 0.505.
The same measure for G76U C86A: 0.615; for G76U C86G: 1.09; for G73C A87U: 0.626.
The result for A77G A87U reads 0.851; that for A77U C85A, 0.514; that for G74U G80C, 0.164.
The result for G74U G80A reads 0.0845.
Regarding G74C C85A, the self-cleavage was determined as 0.217.
In the case of G74C C85U, the self-cleavage is 0.128.
With A78U G80U, the self-cleavage turned out to be 0.244.
The result for A78U G80C reads 0.174; that for G76C A77C, 0.104.
The same measure for A77C C85U: 0.192; for G73A G81A: 0.176.
In the case of G73A A87U, the self-cleavage amounted to 0.803.
Consider G73A A87G, for which the self-cleavage was determined as 0.697.
On to A77U A83U, for which the self-cleavage stood at 0.0898.
The same measure for A78C U79G: 0.113; for A78C U79C: 0.153.
As to C75G A87U, the self-cleavage worked out at 0.143.
On to C75G A87G, for which the self-cleavage was 0.108.
G73U C75G: the self-cleavage turned out to be 0.086.
The same measure for C75U U79A: 0.151; for C75U U79G: 0.0594.
The same measure for G73C G81U: 0.259; for A77C G82U: 0.0755.
Turning to G73U C84A, the self-cleavage was 0.158.
Take G73U C84G: the self-cleavage was found to be 0.329.
The same measure for C75G G76U: 0.237; for C75G G76A: 0.196.
Take U72G G82A: the self-cleavage came to 0.0978.
Consider A78C G82A, for which the self-cleavage was 0.106.
Consider A78C G82U, for which the self-cleavage is 0.212.
The same measure for A77U A87U: 0.785; for C75A G82A: 0.151.
The same measure for C75U A77C: 0.208.
For the variant C75U A77G, the self-cleavage turned out to be 0.0415.
With A78G G82U, the self-cleavage came to 0.295.
For the variant A78G G82C, the self-cleavage turned out to be 0.0519.
The result for G76U C84U reads 1.11; that for G76U C84A, 0.906; that for G76U C84G, 1.05.
The result for U72G G76A reads 0.743; that for G74C G82U, 0.179.
The same measure for A77U G80U: 0.161; for A77U G80A: 0.0923; for A77U G80C: 0.136.
Consider G73U G76U, for which the self-cleavage was 0.212.
With G76A C86G, the self-cleavage worked out at 1.08.
The result for U72G G80A reads 0.185.
With G74C A87G, the self-cleavage is 0.291.
The same measure for G74C A87C: 0.212; for U79A: 0.808.
In the case of G73A U79G, the self-cleavage is 0.248.
The same measure for G73A U79A: 0.231.
G73A U79C: the self-cleavage stood at 0.186.
In the case of G74U C75U, the self-cleavage was determined as 0.151.
G76A U79A: the self-cleavage is 0.831.
The same measure for C75U C84G: 0.136; for C75U C84A: 0.237.
The same measure for G74C A83C: 0.295; for G74C A83U: 0.185; for G76C C86G: 0.971.
Consider G76C C86A, for which the self-cleavage is 0.854.
The result for C75G C85A reads 0.208; that for C75G C85G, 0.0923.
The result for A78G C85A reads 0.86; that for A78G C85G, 0.539.
As for A77G C84U, the self-cleavage worked out at 0.631.
Take C75A C86G: the self-cleavage came to 0.0997.
A77U U79C: the self-cleavage is 0.0811.
Turning to A77U U79A, the self-cleavage was found to be 0.32.
The same measure for G76A G82U: 0.601; for G76A G82C: 0.214; for G76A G82A: 0.35.
The result for G74A A78G reads 0.111.
The same measure for G74A A78C: 0.0811; for G76C C84A: 1.19; for G76C C84U: 1.04.
For the variant A77C U79G, the self-cleavage stood at 0.151.
Take A77C U79C: the self-cleavage was determined as 0.138.
The same measure for A77C U79A: 0.297.
The same measure for G73U A78G: 0.332; for G73U A78C: 0.173.
The result for G73U A78U reads 0.119.
Regarding G73A C84U, the self-cleavage came out at 0.665.
The same measure for C75G G81C: 0.0831; for G76U G81U: 0.462.
